The text below walks through data of the Immune Epitope Database (IEDB).

Targets include HLA-A*02:02; HLA-A*02:06; HLA-A*02:03.
Holding throughout (experiment): IEDB peptide-MHC binding, purified MHC/competitive/radioactivity; filed as Kd, often an IC50 or EC50 that approximates it; ≥ and ≤ were set here for values at or beyond the usual limits of such assays
The next assay deals with HLA-A*33:01. The following applies: source organism: Vaccinia virus WR.
A further assay deals with HLA-A*03:01. The following applies: source organism: Vaccinia virus WR.
A further assay has as its target HLA-A*31:01. Particulars: source organism: Vaccinia virus WR.
The target in a further assay is HLA-A*11:01. Particulars: source organism: Vaccinia virus WR.
Another assay concerns the target HLA-A*68:01. Particulars: source organism: Vaccinia virus WR.
Setting [1] is: source organism: Vaccinia virus WR.
Where [2] appears, read: source organism: Lymphocytic choriomeningitis virus (strain Armstrong).
Where [3] appears, read: source organism: SARS coronavirus Tor2.
Setting [4] is: source organism: Mammarenavirus guanaritoense.

For the sequence VLTSVDIET, the Kd stood at 0.382 µM with HLA-A*02:02 (setting [1]), 0.0137 µM with HLA-A*02:06 (setting [1]) and 11.3 µM in the assay with HLA-A*02:03 (setting [1]).
For DTMSIYIAVA, the Kd amounted to 0.0195 µM in the assay with HLA-A*02:02 (setting [1]), 1.48 µM in the assay with HLA-A*02:06 (setting [1]) and 0.0237 µM with HLA-A*02:03 (setting [1]).
For the sequence LMDCIIFES, the results for the Kd with HLA-A*02:02 (setting [2]), with HLA-A*02:06 (setting [2]) and with HLA-A*02:03 (setting [2]) were 0.0301 µM, 0.3 µM and 0.825 µM, respectively.
Consider SVKNLILNFL, for which the results for the Kd with HLA-A*02:02 (setting [1]), in the assay with HLA-A*02:06 (setting [1]) and in the assay with HLA-A*02:03 (setting [1]) were 1.04 µM, 0.551 µM and 0.163 µM, respectively.
In the case of TITTFIPISA, the figures for the Kd with HLA-A*02:02 (setting [1]), with HLA-A*02:06 (setting [1]) and with HLA-A*02:03 (setting [1]) were 4.06 µM, 4.84 µM and 0.176 µM, respectively.
In the case of YQNEVTPEYI, the Kd with HLA-A*02:02 (setting [1]) is 0.00274 µM; with HLA-A*02:06 (setting [1]), 0.00259 µM; with HLA-A*02:03 (setting [1]), 0.000209 µM.
For the sequence AQMGTLLIA, the equilibrium dissociation constant (Kd) turned out to be 0.0645 µM with HLA-A*02:02 (setting [3]), 0.000442 µM in the assay with HLA-A*02:06 (setting [3]) and 0.00155 µM with HLA-A*02:03 (setting [3]).
As to LSYSQTMLL, the Kd with HLA-A*02:02 (setting [2]) came out at 2.11 µM; with HLA-A*02:06 (setting [2]) it was 3.72 µM; with HLA-A*02:03 (setting [2]), 11.3 µM.
Consider DQDTMLFASA, for which the Kd with HLA-A*02:02 (setting [1]) is 0.891 µM; with HLA-A*02:06 (setting [1]) it was 1.72 µM; with HLA-A*02:03 (setting [1]), 0.663 µM.
For the sequence ILASFSAST, the Kd was found to be 0.00162 µM with HLA-A*02:02 (setting [3]), 0.457 µM in the assay with HLA-A*02:06 (setting [3]) and 0.00527 µM in the assay with HLA-A*02:03 (setting [3]).
For VMPEKRNVVV, the Kd with HLA-A*02:02 (setting [1]) is 3.54 µM; with HLA-A*02:06 (setting [1]), at least 27.7 µM; with HLA-A*02:03 (setting [1]) it was 0.299 µM.
Take KNAGYLVGR: the Kd was at least 45.6 µM in the assay with HLA-A*02:02 (setting [4]), at least 77 µM with HLA-A*02:06 (setting [4]) and at least 78.1 µM with HLA-A*02:03 (setting [4]).
MLDDFSAGA: the Kd came to 0.0684 µM with HLA-A*02:02 (setting [1]), 0.114 µM in the assay with HLA-A*02:06 (setting [1]) and 0.0731 µM with HLA-A*02:03 (setting [1]).
In the case of RLLKNMKQCT, the Kd was at least 46.8 µM in the assay with HLA-A*02:02 (setting [1]), 11.9 µM with HLA-A*02:06 (setting [1]) and 3.14 µM with HLA-A*02:03 (setting [1]).
With YLSSRAKLAL, the Kd with HLA-A*02:03 (source organism: Dengue virus 4 Philippines/H241/1956) was 0.0281 µM.
Take RMPTDMLKL: the Kd was 0.95 µM with HLA-A*02:02 (setting [1]), 0.678 µM with HLA-A*02:06 (setting [1]) and 0.106 µM with HLA-A*02:03 (setting [1]).
The matching figures for LVFNSISARA: 1.27 µM, 0.702 µM and 0.254 µM.
With HIGHHYIWI, the Kd with HLA-A*02:02 (setting [1]) was 2.55 µM; with HLA-A*02:06 (setting [1]) it was at least 25.3 µM; in the assay with HLA-A*02:03 (setting [1]), 0.899 µM.
Regarding LLVTLAILTA, the values for the dissociation constant (Kd) with HLA-A*02:02 (setting [3]), with HLA-A*02:06 (setting [3]) and in the assay with HLA-A*02:03 (setting [3]) were 0.00439 µM, 0.0322 µM and 0.0429 µM, respectively.
With FTDCRTIDAI, the Kd is 9.44 µM in the assay with HLA-A*02:02 (setting [1]), 0.751 µM with HLA-A*02:06 (setting [1]) and 12.8 µM with HLA-A*02:03 (setting [1]).
As to KLTKDRKML, the figures for the Kd with HLA-A*02:02 (setting [1]), in the assay with HLA-A*02:06 (setting [1]) and with HLA-A*02:03 (setting [1]) were at least 24.5 µM, at least 77.1 µM and at least 36.4 µM, respectively.
For the sequence SQVNPITLTA, the Kd with HLA-A*02:06 (source organism: Dengue virus 2 Jamaica/1409/1983) amounted to 0.129 µM.
Regarding ITRLEVIGLT, the values for the dissociation constant (Kd) with HLA-A*02:02 (setting [1]), in the assay with HLA-A*02:06 (setting [1]) and in the assay with HLA-A*02:03 (setting [1]) were 2.21 µM, 0.967 µM and 0.219 µM, respectively.
The matching figures for EAKTHFSTT: at least 36.6 µM, at least 55.3 µM and at least 25.1 µM.
Take NLEELTTVFI: the Kd in the assay with HLA-A*02:02 (setting [1]) turned out to be 0.418 µM; with HLA-A*02:06 (setting [1]), 12.3 µM; with HLA-A*02:03 (setting [1]), 6.5 µM.
On to SMVSAGSGEV, for which the Kd with HLA-A*02:03 (source organism: Dengue virus 1 Brazil/97-11/1997) came out at 0.144 µM.
For the sequence KLPTWLGAAI, the Kd was found to be 0.103 µM in the assay with HLA-A*02:02 (setting [1]), 0.295 µM with HLA-A*02:06 (setting [1]) and 0.123 µM with HLA-A*02:03 (setting [1]).
Turning to QLVKDESIQL, the figures for the Kd with HLA-A*02:02 (setting [1]), with HLA-A*02:06 (setting [1]) and with HLA-A*02:03 (setting [1]) were 0.157 µM, 1.81 µM and 0.13 µM, respectively.
As for TTTFITVLT, the Kd stood at 2.46 µM in the assay with HLA-A*02:02 (setting [1]), 1.09 µM with HLA-A*02:06 (setting [1]) and 8.59 µM with HLA-A*02:03 (setting [1]).
Regarding TIGTIAGGV, the Kd with HLA-A*02:02 (setting [1]) is 0.298 µM; with HLA-A*02:06 (setting [1]), 1.14 µM; with HLA-A*02:03 (setting [1]), 0.0174 µM.
Consider LQQNNSFII, for which the Kd with HLA-A*02:02 (setting [1]) turned out to be 11.7 µM; with HLA-A*02:06 (setting [1]) it was 0.423 µM; with HLA-A*02:03 (setting [1]) it was 5.17 µM.
For the sequence FTHTTAFFNT, the figures for the Kd with HLA-A*02:02 (setting [1]), with HLA-A*02:06 (setting [1]) and in the assay with HLA-A*02:03 (setting [1]) were 17.2 µM, 0.051 µM and 10.2 µM, respectively.
Regarding YASLTTIGTI, the Kd was 6.29 µM with HLA-A*02:02 (setting [1]), 0.0836 µM with HLA-A*02:06 (setting [1]) and 0.398 µM in the assay with HLA-A*02:03 (setting [1]).
For DLTTMPTYK, the Kd with HLA-A*33:01 turned out to be 0.914 µM; with HLA-A*03:01 it was 0.757 µM; in the assay with HLA-A*31:01, 0.63 µM; with HLA-A*11:01 it was 0.293 µM; with HLA-A*68:01 it was 0.128 µM.
On to GLKSKTHAV, for which, in the assay with HLA-A*02:03 (source organism: Homo sapiens), the Kd was found to be 0.00158 µM.
As to RTRLYDYFTR, the Kd with HLA-A*33:01 turned out to be 1.63 µM; in the assay with HLA-A*03:01, 6.06 µM; in the assay with HLA-A*31:01, 0.0007 µM; with HLA-A*11:01, 0.991 µM; with HLA-A*68:01, 1.45 µM.
